Target: superfolder GFP with strained-cyclooctyne pyrrolysine at residue 204 (sfGFP^204SCO) (Aequorea victoria) [GFP: P42212]
Test: FRET or BRET

## Venus with p-azido-L-phenylalanine at residue 204 (Venus^204azF) (from UniProt P42212 2-238)
  FRET efficiency: 86.8%

Reference: article doi:10.1101/838888
